Measurements published in patent US6025179.

Tested on: SnaBI restriction endonuclease (R.SnaBI) (Sphaerotilus natans)
Experiment: cleavage_in_vitro
Conditions: crude extract, 37 C, 15 min and 1 h; about 8x10^6

## T7 phage DNA (SnaBI substrate)
  activity (units/g wet cells): 8e+06
